Data reported in patent publication US20200262877A1, “ION CHANNEL-BINDING PEPTIDES AND METHODS OF USE THEREOF” (priority 2017, published 2020).

What was measured:
[1] = target: T1, NR2A (Homo sapiens, UniProt Q12879); experiment: Ion channel panel (IonWorks Barracuda): NR2A; type: cell-based; settings: 100% = no change, <100% = inhibition
T1 construct: host or cells: HEK293 or CHO
Procedure, shortened: (§1)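 Peptides were tested in duplicate at final 20 μM and 200 nM, with concentration set by amino acid analysis, in HEPES-buffered saline. They were applied for at least 5 min to HEK293 or CHO cells transfected with each channel. Currents were expressed as % inhibition, 1-(Ipeptide/Icontrol)×100, or % activation, Ipeptide/Icontrol×100, against a channel-matched reference compound.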

[2] = target: T2, Nav1.7 (Homo sapiens, UniProt Q15858); experiment: cell-based; type: cell-based; settings: 100% = no change; for Activity of Nav1.7 with peptide, expressed as a percentage of the reference compound: peptide at 0.2 μM; for Activity of Nav1.7 with peptide (percentage of the reference compound): peptide at 20 μM
T2 construct: host or cells: HEK293 or CHO

[3] = target: T3, Cav2.2 (Homo sapiens, UniProt Q00975); experiment: cell-based; settings: 100% = no change, <100% = inhibition
T3 construct: host or cells: HEK293 or CHO
Procedure, shortened: as §1

[4] = target: T4, Cav2.1 (Homo sapiens, UniProt O00555); experiment: cell-based; settings: 100% = no change, <100% = inhibition
T4 construct: host or cells: HEK293 or CHO
Procedure, shortened: as §1

[5] = target: T5, Kv2.1 (Homo sapiens, UniProt Q14721); experiment: cell-based; settings: 100% = no change, <100% = inhibition
T5 construct: host or cells: HEK293 or CHO
Procedure, shortened: as §1

[6] = target: T6, TRPV1 (Homo sapiens, UniProt Q8NER1); experiment: Ion channel panel (IonWorks Barracuda): TRPV1; type: cell-based; settings: 100% = no change, <100% = inhibition
T6 construct: host or cells: HEK293 or CHO
Procedure, shortened: as §1

[7] = target: T7, α3β4 (Homo sapiens, UniProt P30926+P32297); experiment: Ion channel panel (IonWorks Barracuda): α3β4; type: cell-based; settings: 100% = no change, <100% = inhibition
T7 construct: host or cells: HEK293 or CHO
Procedure, shortened: as §1

[8] = target: T8, 5HT3a (Homo sapiens, UniProt P46098); experiment: Ion channel panel (IonWorks Barracuda): 5HT3a; type: cell-based
T8 construct: host or cells: HEK293 or CHO
T8 sequence (P46098 whole entry, looked up): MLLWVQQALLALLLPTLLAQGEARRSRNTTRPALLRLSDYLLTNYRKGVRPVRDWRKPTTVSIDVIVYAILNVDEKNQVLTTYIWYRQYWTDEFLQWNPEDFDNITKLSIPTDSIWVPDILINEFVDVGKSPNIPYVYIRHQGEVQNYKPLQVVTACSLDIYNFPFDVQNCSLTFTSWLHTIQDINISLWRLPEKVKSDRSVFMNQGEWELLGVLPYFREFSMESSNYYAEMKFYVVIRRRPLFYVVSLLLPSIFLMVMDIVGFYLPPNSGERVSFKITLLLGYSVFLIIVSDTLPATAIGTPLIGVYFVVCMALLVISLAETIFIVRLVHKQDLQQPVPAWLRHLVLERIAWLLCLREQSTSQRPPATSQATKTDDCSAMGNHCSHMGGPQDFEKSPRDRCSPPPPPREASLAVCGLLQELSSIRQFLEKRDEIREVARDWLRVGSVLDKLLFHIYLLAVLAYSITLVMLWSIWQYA
Procedure, shortened: as §1

[9] = target: T9, TRPA1 (Homo sapiens, UniProt O75762); experiment: Ion channel panel (IonWorks Barracuda): TRPA1; type: cell-based; settings: 100% = no change, <100% = inhibition
T9 construct: host or cells: HEK293 or CHO
Procedure, shortened: as §1

[10] = target: hERG (Homo sapiens, UniProt Q12809); experiment: in vitro; settings: 100% = no change, <100% = inhibition
Procedure, shortened: as §1

[11] = target: Nav1.5 (Homo sapiens, UniProt Q14524); experiment: in vitro; settings: 100% = no change; for Activity of Nav1.5 with peptide, expressed as a percentage of the reference compound: peptide at 0.2 μM; for Activity of Nav1.5 with peptide (percentage of the reference compound): peptide at 20 μM
Procedure, shortened: as §1

[12] = target: T10, NR2B (Homo sapiens, UniProt Q13224); experiment: Ion channel panel (IonWorks Barracuda): NR2B; type: cell-based; settings: 100% = no change, <100% = inhibition
T10 construct: host or cells: HEK293 or CHO
Procedure, shortened: as §1

[13] = tested on: GABA; experiment: Ion channel panel (IonWorks Barracuda): GABA; type: cell-based; settings: 100% = no change, <100% = inhibition
Procedure, shortened: as §1

[14] = target: T11, Kir2.1 (Homo sapiens, UniProt P63252); experiment: Ion channel panel (IonWorks Barracuda): Kir2.1; type: cell-based; settings: 100% = no change, <100% = inhibition
T11 construct: host or cells: HEK293 or CHO
Procedure, shortened: as §1

[15] = target: T12, α4β2 (Homo sapiens, UniProt P17787+P43681); experiment: Ion channel panel (IonWorks Barracuda): α4β2; type: cell-based; settings: 100% = no change, <100% = inhibition
T12 construct: host or cells: HEK293 or CHO
Procedure, shortened: as §1

[16] = target: T13, Kv1.2 (Homo sapiens, UniProt P16389); experiment: cell-based; type: cell-based; settings: 100% = no change, <100% = inhibition
T13 construct: host or cells: HEK293 or CHO
Procedure, shortened: as §1

[17] = target: T14, Kv1.1 (Homo sapiens, UniProt Q09470); experiment: cell-based; type: cell-based; settings: 100% = no change, <100% = inhibition
T14 construct: host or cells: HEK293 or CHO
Procedure, shortened: as §1

[18] = target: T15, Kv1.3 (Homo sapiens, UniProt P22001); experiment: cell-based; type: cell-based; settings: 100% = no change, <100% = inhibition
T15 construct: host or cells: HEK293 or CHO
Procedure, shortened: as §1

[19] = first of two Nav1.7 columns (probably TP1)
[20] = second of two Nav1.7 columns (probably TP2)
[21] = first of two Nav1.5 columns (probably TP1)
[22] = second of two Nav1.5 columns (probably TP2)

Sequence of Nav1.5 (Q14524 whole entry): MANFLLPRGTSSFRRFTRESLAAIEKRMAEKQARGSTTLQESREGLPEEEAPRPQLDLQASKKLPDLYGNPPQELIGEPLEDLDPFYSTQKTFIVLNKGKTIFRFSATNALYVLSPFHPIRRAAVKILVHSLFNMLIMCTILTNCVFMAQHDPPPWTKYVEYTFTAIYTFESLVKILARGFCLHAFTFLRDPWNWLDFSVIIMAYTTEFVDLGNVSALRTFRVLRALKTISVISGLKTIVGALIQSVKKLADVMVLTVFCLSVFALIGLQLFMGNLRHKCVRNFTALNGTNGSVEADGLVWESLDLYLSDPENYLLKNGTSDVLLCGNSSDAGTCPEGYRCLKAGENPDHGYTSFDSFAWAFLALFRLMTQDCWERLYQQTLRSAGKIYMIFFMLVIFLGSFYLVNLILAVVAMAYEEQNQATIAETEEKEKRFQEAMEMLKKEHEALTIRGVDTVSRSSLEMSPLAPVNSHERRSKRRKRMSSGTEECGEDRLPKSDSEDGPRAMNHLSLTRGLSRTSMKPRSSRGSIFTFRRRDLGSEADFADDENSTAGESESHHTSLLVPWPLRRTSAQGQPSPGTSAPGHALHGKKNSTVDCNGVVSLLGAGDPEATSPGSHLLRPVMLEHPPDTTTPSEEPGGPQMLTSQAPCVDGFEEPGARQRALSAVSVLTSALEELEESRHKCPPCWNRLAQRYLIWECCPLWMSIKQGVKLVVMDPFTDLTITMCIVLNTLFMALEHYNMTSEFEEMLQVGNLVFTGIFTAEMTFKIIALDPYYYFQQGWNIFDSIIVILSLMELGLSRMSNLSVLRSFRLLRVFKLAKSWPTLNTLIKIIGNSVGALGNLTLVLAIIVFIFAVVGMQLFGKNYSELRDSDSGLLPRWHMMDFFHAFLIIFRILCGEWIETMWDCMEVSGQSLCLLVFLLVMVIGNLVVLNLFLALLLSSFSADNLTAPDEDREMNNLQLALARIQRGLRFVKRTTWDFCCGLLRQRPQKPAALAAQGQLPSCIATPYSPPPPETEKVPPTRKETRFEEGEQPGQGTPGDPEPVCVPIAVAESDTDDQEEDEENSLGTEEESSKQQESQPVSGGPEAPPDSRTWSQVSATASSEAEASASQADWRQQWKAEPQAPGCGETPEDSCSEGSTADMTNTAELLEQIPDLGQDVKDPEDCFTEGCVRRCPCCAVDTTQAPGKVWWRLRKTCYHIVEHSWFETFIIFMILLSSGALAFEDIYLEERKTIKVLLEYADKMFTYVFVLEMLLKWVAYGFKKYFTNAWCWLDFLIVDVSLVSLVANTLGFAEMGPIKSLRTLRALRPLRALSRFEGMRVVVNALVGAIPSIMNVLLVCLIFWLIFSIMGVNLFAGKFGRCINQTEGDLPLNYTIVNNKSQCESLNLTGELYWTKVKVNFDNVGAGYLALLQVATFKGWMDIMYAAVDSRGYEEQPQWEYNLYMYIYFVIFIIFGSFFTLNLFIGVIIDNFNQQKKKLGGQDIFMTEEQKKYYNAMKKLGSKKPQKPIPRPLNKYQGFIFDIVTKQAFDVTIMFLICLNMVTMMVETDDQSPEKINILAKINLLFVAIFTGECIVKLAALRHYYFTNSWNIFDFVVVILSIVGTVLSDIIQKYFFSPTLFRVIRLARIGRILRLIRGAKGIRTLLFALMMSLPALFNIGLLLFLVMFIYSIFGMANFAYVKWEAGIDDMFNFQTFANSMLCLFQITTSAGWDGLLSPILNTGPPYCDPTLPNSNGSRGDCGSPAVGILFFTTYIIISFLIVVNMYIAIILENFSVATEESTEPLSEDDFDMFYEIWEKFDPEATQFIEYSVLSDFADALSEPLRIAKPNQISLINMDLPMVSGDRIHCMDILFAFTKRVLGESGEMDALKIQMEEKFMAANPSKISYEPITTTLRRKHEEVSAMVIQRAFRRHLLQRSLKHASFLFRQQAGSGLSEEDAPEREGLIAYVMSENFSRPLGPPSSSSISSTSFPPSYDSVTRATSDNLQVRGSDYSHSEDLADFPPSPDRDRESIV
T2 sequence (Q15858 whole entry): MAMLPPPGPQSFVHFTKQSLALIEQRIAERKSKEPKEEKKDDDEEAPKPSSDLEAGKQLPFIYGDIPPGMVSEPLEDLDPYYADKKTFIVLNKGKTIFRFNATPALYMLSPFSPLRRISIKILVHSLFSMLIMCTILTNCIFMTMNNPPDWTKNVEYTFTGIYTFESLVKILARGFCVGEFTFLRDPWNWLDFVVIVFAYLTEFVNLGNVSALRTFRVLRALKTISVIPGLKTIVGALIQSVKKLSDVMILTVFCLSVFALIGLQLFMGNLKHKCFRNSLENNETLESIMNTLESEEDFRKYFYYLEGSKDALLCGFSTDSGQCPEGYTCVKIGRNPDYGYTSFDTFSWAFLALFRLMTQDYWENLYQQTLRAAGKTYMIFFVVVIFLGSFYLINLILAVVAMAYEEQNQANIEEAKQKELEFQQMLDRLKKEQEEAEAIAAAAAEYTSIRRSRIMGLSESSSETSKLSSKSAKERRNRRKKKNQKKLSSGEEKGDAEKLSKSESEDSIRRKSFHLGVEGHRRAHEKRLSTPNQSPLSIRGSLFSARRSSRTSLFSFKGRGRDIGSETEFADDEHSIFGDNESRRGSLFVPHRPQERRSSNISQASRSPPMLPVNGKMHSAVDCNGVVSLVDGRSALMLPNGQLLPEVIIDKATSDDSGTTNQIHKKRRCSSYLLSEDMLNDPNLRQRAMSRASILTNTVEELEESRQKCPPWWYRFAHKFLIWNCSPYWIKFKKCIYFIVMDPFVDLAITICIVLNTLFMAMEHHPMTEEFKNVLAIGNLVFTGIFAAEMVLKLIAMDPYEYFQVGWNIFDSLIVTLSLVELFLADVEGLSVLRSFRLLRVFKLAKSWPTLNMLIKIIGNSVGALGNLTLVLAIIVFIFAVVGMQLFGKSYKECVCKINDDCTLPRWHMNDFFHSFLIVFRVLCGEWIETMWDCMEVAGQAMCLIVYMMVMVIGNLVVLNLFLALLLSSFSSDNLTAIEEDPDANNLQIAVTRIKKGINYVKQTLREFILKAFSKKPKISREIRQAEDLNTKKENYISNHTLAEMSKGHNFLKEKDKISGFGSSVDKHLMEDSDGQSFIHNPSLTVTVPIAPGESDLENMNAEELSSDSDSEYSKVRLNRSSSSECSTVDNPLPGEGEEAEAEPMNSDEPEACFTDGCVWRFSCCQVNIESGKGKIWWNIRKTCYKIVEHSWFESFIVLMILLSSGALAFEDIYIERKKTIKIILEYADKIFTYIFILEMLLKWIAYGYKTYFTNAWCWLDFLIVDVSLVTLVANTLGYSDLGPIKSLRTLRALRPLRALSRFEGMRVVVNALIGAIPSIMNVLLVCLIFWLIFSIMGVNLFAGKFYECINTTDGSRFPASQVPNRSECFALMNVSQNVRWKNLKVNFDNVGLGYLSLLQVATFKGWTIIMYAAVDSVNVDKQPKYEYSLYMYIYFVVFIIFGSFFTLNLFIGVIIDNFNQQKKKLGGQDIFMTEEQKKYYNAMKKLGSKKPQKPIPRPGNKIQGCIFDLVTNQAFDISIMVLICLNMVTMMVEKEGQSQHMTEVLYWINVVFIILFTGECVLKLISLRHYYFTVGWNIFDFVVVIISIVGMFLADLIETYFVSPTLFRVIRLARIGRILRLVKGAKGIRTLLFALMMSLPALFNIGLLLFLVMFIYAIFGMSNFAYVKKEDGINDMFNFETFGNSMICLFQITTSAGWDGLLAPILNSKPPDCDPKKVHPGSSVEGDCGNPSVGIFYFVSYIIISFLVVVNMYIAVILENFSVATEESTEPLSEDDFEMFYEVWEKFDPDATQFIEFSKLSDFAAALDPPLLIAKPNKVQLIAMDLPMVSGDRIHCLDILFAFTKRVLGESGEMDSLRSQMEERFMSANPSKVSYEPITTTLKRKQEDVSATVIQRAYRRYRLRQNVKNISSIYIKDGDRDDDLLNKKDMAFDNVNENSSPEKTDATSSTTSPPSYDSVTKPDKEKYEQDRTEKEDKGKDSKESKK
T11 sequence (P63252 whole entry): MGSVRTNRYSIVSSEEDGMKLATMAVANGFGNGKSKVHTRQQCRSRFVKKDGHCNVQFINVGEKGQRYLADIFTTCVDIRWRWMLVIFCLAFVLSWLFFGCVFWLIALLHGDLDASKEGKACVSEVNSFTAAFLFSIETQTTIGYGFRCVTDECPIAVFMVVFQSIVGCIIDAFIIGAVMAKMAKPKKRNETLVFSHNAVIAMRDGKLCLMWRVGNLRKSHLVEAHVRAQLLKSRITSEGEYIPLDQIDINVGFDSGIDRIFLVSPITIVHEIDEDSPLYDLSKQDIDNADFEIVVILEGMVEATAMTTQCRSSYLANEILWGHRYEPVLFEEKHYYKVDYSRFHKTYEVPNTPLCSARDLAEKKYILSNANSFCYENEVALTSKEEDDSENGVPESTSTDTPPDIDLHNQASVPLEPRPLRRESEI
T13 sequence (P16389 whole entry): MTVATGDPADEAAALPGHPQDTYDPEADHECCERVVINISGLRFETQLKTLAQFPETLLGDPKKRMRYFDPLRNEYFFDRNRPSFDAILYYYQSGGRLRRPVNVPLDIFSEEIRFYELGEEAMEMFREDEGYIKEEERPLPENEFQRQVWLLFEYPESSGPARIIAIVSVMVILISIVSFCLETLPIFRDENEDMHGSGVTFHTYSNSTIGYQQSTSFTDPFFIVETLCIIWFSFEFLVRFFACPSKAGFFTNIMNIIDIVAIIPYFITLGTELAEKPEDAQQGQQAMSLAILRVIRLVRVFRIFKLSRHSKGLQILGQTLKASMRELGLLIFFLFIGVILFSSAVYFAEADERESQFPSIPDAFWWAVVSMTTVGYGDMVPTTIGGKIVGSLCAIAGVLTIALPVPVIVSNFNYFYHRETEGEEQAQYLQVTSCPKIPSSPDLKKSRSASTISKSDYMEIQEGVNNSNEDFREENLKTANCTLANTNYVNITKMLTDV

## 18 (GSNCAGYMRECKEKLCCSGYVCSSRWKWCVLPAPWRR) [compound 18]
[1]; peptide at 0.2 μM
  Activity of NR2A with peptide, expressed as a percentage of the reference compound: 98%
[1]; peptide at 20 μM
  Activity of NR2A with peptide (percentage of the reference compound): 79%
[2]; [19]
  Activity of Nav1.7 with peptide, expressed as a percentage of the reference compound: 85%
  Activity of Nav1.7 with peptide (percentage of the reference compound): 43%
[2]; [20]
  Activity of Nav1.7 with peptide, expressed as a percentage of the reference compound: 84%
  Activity of Nav1.7 with peptide (percentage of the reference compound): 55%
[3]; peptide at 0.2 μM
  Activity of Cav2.2 with peptide, expressed as a percentage of the reference compound: 132%
[3]; peptide at 20 μM
  Activity of Cav2.2 with peptide (percentage of the reference compound): 124%
[4]; peptide at 0.2 μM
  Activity of Cav2.1 with peptide, expressed as a percentage of the reference compound: 97%
[4]; peptide at 20 μM
  Activity of Cav2.1 with peptide (percentage of the reference compound): 98%
[5]; peptide at 0.2 μM
  Activity of Kv2.1 with peptide, expressed as a percentage of the reference compound: 93%
[5]; peptide at 20 μM
  Activity of Kv2.1 with peptide (percentage of the reference compound): 65%
[6]; peptide at 0.2 μM
  Activity of TRPV1 with peptide, expressed as a percentage of the reference compound: 93%
[6]; peptide at 20 μM
  Activity of TRPV1 with peptide (percentage of the reference compound): 61%
[7]; peptide at 0.2 μM
  Activity of a3b4 with peptide, expressed as a percentage of the reference compound: 110%
[7]; peptide at 20 μM
  Activity of a3b4 with peptide (percentage of the reference compound): 89%
[8]
  Activity of 5HT3a with peptide (percentage of the reference compound): 79%
  Activity of 5HT3a with peptide, expressed as a percentage of the reference compound: 95%
[9]; peptide at 0.2 μM
  Activity of TRPA1 with peptide, expressed as a percentage of the reference compound: 130%
[9]; peptide at 20 μM
  Activity of TRPA1 with peptide (percentage of the reference compound): 89%
[10]; peptide at 0.2 μM
  Activity of hERG with peptide, expressed as a percentage of the reference compound: 98%
[10]; peptide at 20 μM
  Activity of hERG with peptide (percentage of the reference compound): 62%
[11]; [21]
  Activity of Nav1.5 with peptide, expressed as a percentage of the reference compound: 104%
  Activity of Nav1.5 with peptide (percentage of the reference compound): 87%
[11]; [22]
  Activity of Nav1.5 with peptide, expressed as a percentage of the reference compound: 106%
  Activity of Nav1.5 with peptide (percentage of the reference compound): 112%
[12]; peptide at 0.2 μM
  Activity of NR2B with peptide, expressed as a percentage of the reference compound: 107%
[12]; peptide at 20 μM
  Activity of NR2B with peptide (percentage of the reference compound): 78%
[13]; peptide at 0.2 μM
  Activity of GABA with peptide, expressed as a percentage of the reference compound: 113%
[13]; peptide at 20 μM
  Activity of GABA with peptide (percentage of the reference compound): 106%
[14]; peptide at 0.2 μM
  Activity of Kir2.1 with peptide, expressed as a percentage of the reference compound: 104%
[14]; peptide at 20 μM
  Activity of Kir2.1 with peptide (percentage of the reference compound): 93%
[15]; peptide at 0.2 μM
  Activity of a4b2 with peptide, expressed as a percentage of the reference compound: 109%
[15]; peptide at 20 μM
  Activity of a4b2 with peptide (percentage of the reference compound): 92%
[16]; peptide at 0.2 μM
  Activity of Kv1.2 with peptide, expressed as a percentage of the reference compound: 67%
[16]; peptide at 20 μM
  Activity of Kv1.2 with peptide (percentage of the reference compound): 30%
[17]; peptide at 0.2 μM
  Activity of Kv1.1 with peptide, expressed as a percentage of the reference compound: 98%
[17]; peptide at 20 μM
  Activity of Kv1.1 with peptide (percentage of the reference compound): 78%
[18]; peptide at 0.2 μM
  Activity of Kv1.3 with peptide, expressed as a percentage of the reference compound: 87%
[18]; peptide at 20 μM
  Activity of Kv1.3 with peptide (percentage of the reference compound): 7%
